# Target: full-length human Bcl-2 protein (human, UniProt P10415 1-239)
# Assay: NMR; 5 mM DPC micelles, pH 6.0, 310 K
# Sequence of full-length human Bcl-2 protein (P10415 other isoform, or with tags, fused parts or gaps): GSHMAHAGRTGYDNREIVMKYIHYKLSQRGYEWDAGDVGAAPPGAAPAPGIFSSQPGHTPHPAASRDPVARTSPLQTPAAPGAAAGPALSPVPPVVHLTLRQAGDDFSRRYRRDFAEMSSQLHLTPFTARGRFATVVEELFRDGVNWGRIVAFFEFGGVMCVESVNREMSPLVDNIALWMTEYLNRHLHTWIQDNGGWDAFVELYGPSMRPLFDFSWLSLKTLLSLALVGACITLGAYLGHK
binder,measurement,value
Ac-QPPQDASTKKLSECLRRIGDELDSNMELQRMIADVD-NH2 [36-mer Bax-BH3 peptide from Mus musculus],Kd,143 µM
